Substitutions are numbered along the chain they refer to.
T1: Variant-specific Surface Glycoprotein (VSG) on live bloodstream form T. b. brucei AnTat1.1 (Trypanosoma brucei brucei AnTat1.1 (endogenous in the parasites)) (UniProt P06015)
T1 sequence: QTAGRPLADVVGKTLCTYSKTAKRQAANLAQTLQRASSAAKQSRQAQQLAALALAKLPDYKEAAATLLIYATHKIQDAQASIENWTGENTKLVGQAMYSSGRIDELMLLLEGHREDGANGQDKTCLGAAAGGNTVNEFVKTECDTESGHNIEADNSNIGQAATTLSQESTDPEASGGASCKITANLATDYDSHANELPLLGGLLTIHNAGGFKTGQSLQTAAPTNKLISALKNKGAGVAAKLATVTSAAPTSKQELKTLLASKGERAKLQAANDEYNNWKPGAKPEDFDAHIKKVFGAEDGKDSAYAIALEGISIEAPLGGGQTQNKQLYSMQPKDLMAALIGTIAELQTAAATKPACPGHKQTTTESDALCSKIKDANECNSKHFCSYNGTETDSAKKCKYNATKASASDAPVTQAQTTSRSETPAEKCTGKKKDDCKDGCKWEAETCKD

B1: Nb_An33hum1 (VHH)
VHH: DVQLVESGGGSVQAGGSLRLSCAVSGSTYSPCTTGWVRQAPGKEREWVSSISSPGTIYYQDSVKGRFTISRDNAKNTVYLQMNSLQREDTGMYYCQIQCGVRSIREYWGQGTQVTVSS
B2: Nb_An33hum2 (VHH)
VHH: B1 VHH with E44G, R45L
B3: Nanobody 33 (Nb_An33), wildtype (VHH)
VHH: B1 VHH with V37Y
B4: Nb_An33hum3 (VHH)
VHH: B1 VHH with V37Y, E44G, R45L
B5: Nb_An-R3.68 (VHH)
VHH: QVQLQESGGGLVQPGGSLRLSCAASGGTLSYYAVGWFRQAPGKEREAVSSIRSGGGITVYADSVKGRFTISRDNKKNTVYLQMNGLKPEDTAVYYCAAGLWRWPDHNMLVSGNYDYWGQGTQVTVSS
notes: From the alpaca sVSG-immune library, cloned in pMES; source: E. coli WK6, purified (Ni-NTA, Superdex 75 gel filtration)
B6: Nb_An33mut3 (VHH)
VHH: B1 VHH with V37Y, V101N, R102D, S103C, R105L
notes: Conjugated with Alexa Fluor 488 for flow cytometry; source: E. coli WK6, purified (Ni-NTA, Superdex 75 gel filtration)
B7: Nb_An33mut2 (VHH)
VHH: B1 VHH with V37Y, V101F, R102V, S103N, R105N
notes: as for B6
B8: Nb_An33mut1 (VHH)
VHH: B1 VHH with S27R, T28A, Y29L, V37Y
notes: as for B6
B9: Nb_An-R3.7 (VHH)
VHH: QVQLQESGGGLVQPGGSLRLSCEASGFILGYYTIGWIRQAPGKEREGVICITSAGGRTNYADSVKGRFTISRDNAKNTVYLQMNSLKPEDTAVYYCAADLINLCDSSWLRDGMNYWGKGTQVTVSS
notes: as for B5
B10: Nb_An-R3.92 (VHH)
VHH: B9 VHH with P14A, I37F, I49L, T52S, L109W
notes: as for B5
B11: Nb_An-R4.29 (VHH)
VHH: B9 VHH with I37F, I49S, T52N, A54S, G55P, R57T, S107T, L109V, Y115F
notes: as for B5
B12: Nb_An-R4.80 (VHH)
VHH: B9 VHH with I101T
notes: as for B5
B13: Nb_An-R4.55 (VHH)
VHH: B9 VHH with R110Q
notes: as for B5
B14: Nb_An-R4.71 (VHH)
VHH: QVQLQESGGGLVQPGGSLRLSCAASGFILNYATIAWFRQAPGKEREGVSCISSAFNTNYADSVKGRFAISRDNAKNTVYLQMNSLKPEDTAVYYCAATFGGTSYCSLRPDSSVPYDTWGQGTQVTVSS
notes: as for B5
B15: Nb_An-R4.11 (VHH)
VHH: QVQLQESGGGLVQPGGSLRLSCEGSGFILGYYTIGWFRQAPGKEREGVSCMNSSGRTKYADSVKGRFTISRDNAKNTVYLQMNSLKPEDRAVYFCAADLINLCDSSWLRDGMNYWGKGTQVTVSS
notes: as for B5

Target: T1, Variant-specific Surface Glycoprotein (VSG) on live bloodstream form T. b. brucei AnTat1.1 (Trypanosoma brucei brucei AnTat1.1 (endogenous in the parasites))
Test: not given
Conditions: not given

Binder	Trypanotoxic activity (%), 18 h incubation at 37°C with 20 µg/ml Nb
B1	0%
B2	0%
B3	73%
B4	57%

Target: T2, soluble form of the Variant-specific Surface Glycoprotein (sVSG) of T. b. brucei AnTat1.1 (Trypanosoma brucei brucei AnTat1.1, UniProt P06015)
T2 construct: Variant-specific Surface Glycoprotein (VSG) of Trypanosoma brucei brucei AnTat1.1, soluble form (sVSG); Glycoprotein; amine-coupled to a CM5 chip for SPR; also called AnTat1.1 sVSG; soluble AnTat1.1 VSG
Test: SPR; BIAcore T100; 1000-1500 RU soluble AnTat1.1 VSG amine-coupled on a CM5 chip; Nanobody 500 to 7.8 nM at 30 µl/min in HBS (10 mM Hepes pH 7.5, 150 mM NaCl, 3.5 mM EDTA, 0.005% Tween-20); 1:1 binding model with local Rmax
Conditions: both partners purified

Binder	Kd
B5	9 nM

Target: T2, soluble form of the Variant-specific …
Test: as above
Conditions: both partners purified
Remark: another data set of the same source

Binder	Kd	koff	kon
B1	1100 nM	0.264 s⁻¹	243000 M⁻¹ s⁻¹
B6	197 nM	0.066 s⁻¹	336000 M⁻¹ s⁻¹
B7	723 nM	0.227 s⁻¹	314000 M⁻¹ s⁻¹
B2	540 nM	0.15 s⁻¹	291000 M⁻¹ s⁻¹
B8	89 nM	0.042 s⁻¹	467000 M⁻¹ s⁻¹
B3	28 nM	0.021 s⁻¹	741000 M⁻¹ s⁻¹
B4	23.5 nM	0.016 s⁻¹	702000 M⁻¹ s⁻¹

Target: T3, Variant-specific Surface Glycoprotein (VSG) on live bloodstream form T. b. brucei AnTat1.1 (Trypanosoma brucei brucei AnTat1.1, UniProt P06015)
Test: cell-based or functional assay
Conditions: not given

Binder	trypanotoxic activity (% relative to a non-trypanosome specific Nb), 10 and 20 µg/ml Nb, 18 h, 37°C; value at 20 µg/ml
B5	> 95%

Target: T3, Variant-specific Surface Glycoprotein …
Test: cell-based or functional assay
Conditions: not given
Remark: another data set of the same source

Binder	trypanotoxic activity (% relative to a non-trypanosome specific Nb), 10 µg/ml Nb, 18 h, 37°C, HMI-9/10% FBS
B9	> 80%
B10	> 80%
B11	> 80%
B12	> 80%
B13	> 80%
B14	> 80%
B15	> 80%

Target: T2, soluble form of the Variant-specific …
Test: SPR; BIAcore T100; 1000-1500 RU soluble AnTat1.1 VSG amine-coupled on a CM5 chip; Nanobody 500 to 7.8 nM at 30 µl/min in HBS (10 mM Hepes pH 7.5, 150 mM NaCl, 3.5 mM EDTA, 0.005% Tween-20); 1:1 binding model with local Rmax
Conditions: both partners purified
Remark: another data set of the same source

Binder	Kd
B9	5 nM
B10	11 nM
B11	5 nM
B12	6 nM
B13	5 nM
B14	7 nM
B15	35 nM
B5	12 nM

Target: T3, Variant-specific Surface Glycoprotein …
Test: cell-based or functional assay
Conditions: not given
Remark: another data set of the same source

Binder	Trypanotoxic activity (%), 18 h incubation at 37°C with 20 µg/ml Nb
B6	24%
B7	4%
B8	33%

— publication PMC3499403 (PLoS Neglected Tropical Diseases, 2012)
